{"source": "the DeepSol protein solubility set"}
{"experiment": "soluble on expression in E. coli; label from the status in PepcDB or PDB records"}
{"sequence": "MGSDKIHHHHHHMKRISQQELESYLWGAAVLLRGLIDAGDYKQFIFPLLFYKRVSDVWDEEYQAALANSGGDLSYAQFAENHRFQIPAGAHWNDVRQTPKNVGAAIQKAMRAIESANPDLLDGIFGDAPWTNRERLPDETLKNLIEHFSTQTLSVANVPEDELGNAYEYLIKKFADDSGHTAAEFYTNRTVVHLMTQLLAPQAGESIYDPTCGTGGMLISALDEVKRAGGEYRTLKLYGQERNLITSSIARMNLFLHGVEDFEIIRGDTLAEPKHIEGDRLRQFDVILANPPYSIKQWNREAWSSDKWGRNSLGTPPQGRADYAFQQHILTSLTAKGRCAVLWPHGVLFRNEEQSMRAKMVEQDWVEAVIGLGPNLFYNSPMESCIVICNRKKAAARKGKVIFIDAVNEVARERAQSFLKPEHQQRILTAYKTFADVPGFAKVATLAEIGANAGNLSIPLYVKRIAAAIATDSNDDAVSLRSAWDQWQADGRAFWQQMDALVETLDGLVAQEAADA", "soluble on expression in E. coli": "not soluble"}
{"sequence": "MGSDKIHHHHHHMARLAKIKVKTLEQRLWDTADALRGNQEPSEYKHVVLGLVFLKYISDRFEERRRAIETSLSDPNSEEYIPNEARRSEFLEDRDEYASHNVFWVPELARWGYLQDNAKLPKIGQQLDQAMDLIEKENPIIRGVLPRNYGREGLDKSRLGQLVDLIGSIGFTESDDHGSDDVLGRVYEYFLGQFAGKETGKDAGAFYTPRSVVKTLVEMLEPFHGRVYDPACGSGGMFVQSAEFVTAHGGERTDISVYGQEFTDTTWKLAKMNLALRGIEADLGDRSADSFTQDLHRDLRADFIIANPPFNVSNWWNAKLADDPRWKYGTPPEGNANFAWVQHFLHHLSPKGTAGFVLSNGSLSSKSSGEGEIRRKLVEADLVDCIVAMPDKLFFNTGIPVSLWFISKERHGNGHRARQGEVLFIDASKLGRMENRRLRVLDDDRDIAKIAGAYHAWRNHDGGYEDVPGFVVAATLEEIRQHDFVLTPGRYVGTKEAEADWEPVEDKIARLTGELYAEFERGRKLEEVVRERLGGLNAD", "soluble on expression in E. coli": "not soluble"}
{"sequence": "MALAHVSRRVISNQIRCFAAANQETSLVHVEKQFEAIEPEKRDKDAFMAAIATFKEKRGRTHVEFINTALKYVKEYGVHKDIDTYKGLLEVFPKGKMIPQTVFQKVFLHYPQQQNCAVKVLDEMEWHGVQPDKEIHDIVVNAFGEWNFATKKVKRMLYWMPKLKHSNKYLDRRHVEGKSLSPSELAGIALKMMSRDAASSISLLKLSDSSDPQQKWLATSQSPMQQILISELRKGDEVFVDAAKVYLQDRVIPFITLTGNTKLEPLNEFKNEDMDEDYTNWYADWQKQRGEAKRSIHEQDHETIFAMGAMYKDDNATAIRWIDNLQKTNPNMENLRFRVRLEGNPIISRK", "soluble on expression in E. coli": "not soluble"}
{"sequence": "MIDLNGQLHDVQATETLGQALAAARPVSAVVQLHGDLGAGKSTLARALLRALGVAGPIRSPTYTLVERYPLSTGDEAWHLDLYRIGHAGELDFLGLDEGSASLWLVEWPERGAGVLPPVDLDVELAVAGEGRSVRLLGRSAIGHAWMDRLSRQPQLQVLFAASREELEHHHHHH", "soluble on expression in E. coli": "not soluble"}
{"sequence": "MSLSHSIKPWHEACSKLARTSKPEAFNVDTLFAQLADDTNDTFYTVDPRWITQNAQQFSGCFPGTVLYAMKANPLVHVLEALSQGGINHFDVASLAEVQTVHNTLPNAVQYLMNPVKSRHCLHEAYYRHGVRSFVLDSEEELSKLRDVLPERDSTISMFVRYAPSESTAVYDLRGKFGASPALATQLVHQVAASTDWSLGLSFHVGSQAIEDGPWLAALDDADAIVRDTAQHVRHLDIGGGFPGNYLNSMGNTPDLVGRVCEHIQTSPTLKDLNLICEAGRGLVYGGMSLFARVLSRREHSVFCGAGIFGGLLSAQQWLQFPARVWRDAAPYAGSAEATFNIFGPTCDSMDRLAFPYSLASDIREGDWLEFQSTGAYSVSLRTPFNGFYADRIISLPSEGHHHHHH", "soluble on expression in E. coli": "soluble"}
{"sequence": "MVVEMLGKLKEKLQSFIRRVEENVEKEEDEAKKKGLLDKILMIEIKEKDIEEALEDLELELLEADVALEVVDELKDRIKRNLVGKKVRIGTNKEKIIEEAVRKAVLEILTPEKKMDLLEEIKKAEKPYVILFVGFNGSGKTTTIAKLAHWLKKNGFSVVIAASDTFRAGAIEQLEEHAKKVGVKVIKHKYGADPAAVAYDAIQHAKARGIDVVLIDTAGRSETNRNLMDEMKKIARVTKPNLVIFVGDSLAGNAIVEQARQFNQAVKIDGVILTKLDADARGGAALSISHVINAPILFVGIGQGYEDLIPFDERWFVEKILGEESA", "soluble on expression in E. coli": "soluble"}
{"sequence": "MKRQRLVDKEWILQFPIEYFIHKEVHELNSTQAQRLVSLFKNGCETAYIARYRGDVHGYLAPEKIRKAMEAYVDAKNLNNKVSSAISTVTAKVAGAQEKIIVTERFKRCEEFDEVTDISKEYSTGTRKTKANIARALGLEPPAQSILDGNFVDFKSLLSNGLKTVKDVEEHLKICLADLINRDEEVRKVSANIDILKKECRVSAKLSREAEKNRKDLEKRGIIEKYKNFIGEKWNAEDIRDHTVSALNKGFDEGIITWKIECEFNDAKYIHPFSRKSVYFGMKNFYQEALAYSIKNYFIPRIERKMANHLKDKAKDRSIVLFGENVDQLLSQEGIRDKFVIALDPGRSKIKTAFLKPTGEVVDMSSFSIYGTRFDGGGVDLLKKWSQQTERKDIVFAIGNGTNTYNTQIAVSDMINSNVFPKEINVSYCIVPEHGASKYSCTPSAIEEFGENAEITEISAVSIGRRLIDPMSEYVKIEPQHLGKGQYQLSVDPKKLNESLLNVVRDRVSFNGVDLNTASKNLLQRINGLNEKTAKEIVQYREQNGRFRSRAELKEVKGIGALTFQQCAGFLTVSRPDDAEDGPPKKKFKKSSTSKEWNPFDETIVHPDDYRTGESLLGKLNVSIEDITGRIKSFSISRLTAEEAKVLNLLQNLTLKTKMKPPPPLRTKVGQIRDLAEGQRFTGTVSNKTDFGVFIDIGVGQDGLAHISHFKDGHYSLMLPSVNDSVEVVIDKIREDGKISLSPVY", "soluble on expression in E. coli": "not soluble"}
{"sequence": "MNLKREQEFVSQYHFDARNFEWENENGAPETKVDVNFQLLQHDQENQVTSLIVILSFMIVFDKFVISGTISQVNHIDGRIVNEPSELNQEEVETLARPCLNMLNRLTYEVTEIALDLPGINLEF", "soluble on expression in E. coli": "soluble"}
{"sequence": "MSLSYLLALDAGTGSIRAVIFDLNGRQLAVGQAEWKHLSVDNVPGSMEFDLTTNWQLACQCIRQALDAARLSAADIQSVACCSMREGIVLYDRNGEAIWACANVDARASREVAELKEIHDFRFESEVYEVSGQTLALSAMPRLLWLAHHRPDIYRKAATITMISDWLAAKLSGELAVDPSNAGTTGMLDLFSRDWRPALLDMAGLRADMLSPVKETGTLLGAVTEAAAQQSGLRAGTPVVMGGGDVQLGCLGLGVVRAGQTAVLGGTFWQQVVNLPQVRTDPQMNIRVNPHVIPGMAQAESISFFTGLTMRWFRDAFCAEEKLIAERLGVDAYSLLEEMASRVPAGSHGVMPIFSDAMHFKQWYHAAPSFINLSIDPEKCNKATLFRALEENAAIVSACNLAQISQFSGVTFESLVFAGGGSKGALWSQILSDVTGLPVRVPVVREATALGCAIAAGTGAGLYDDMASTGERLVSWHREFTPNPQHRELYQEMMSKWQTVYADQLGLVDSGLTTSMWQAPGLERRQRVASSPSEGHHHHHH", "soluble on expression in E. coli": "soluble"}
{"sequence": "MMLSNFKRNKYQQHLAQLPRISQNADDVQTLHSPELFRTTLTNAILRAKKRVYIVALYLERDDGGIGILSAIYEAKRQCPELDVRVLVDWHRAQRGRIGTAAENTNADWYCDMAKKHPDTHFPIYGIPVNTREALGVLHLKGFIVDDTVIYSGASLNDVYLHQHQKYRYDRYQLIHNPVLADTMVQYIQTMLSAPAVQRLDHTDRPKSLEIKNDIKQFRQTLRTASYQAPECSANANELTVTPLVGLGKQSPLNKTIHHLMYCADEHLVICTPYFNMPALLVRNIIRLLRDGKKVEIIIGDKTANDFYIPEDQPFKIIGALPYLYEINLRRFLSRLERYIENQQLVVRLWKDGDNSFHLKGMWVDGKWQLLTGNNLNPRAWRLDLENAILIHDPQQVLLQQRLDELDTIRTHTHVVKSYTELESIAQYPVKVRKLIRRLRRIRIDRLISRILLEHHHHHH", "soluble on expression in E. coli": "not soluble"}
{"sequence": "MFSYTDTILSIMQRIEVYNEIFKAISKEVQEYGCNQAAHRRGRDTYMFCRNNVNRFFTEEMMFRKNLEPYYDKEATKILLEGLDTYKEGVFFWLEALSESCQVTDELKYQLGIRQKESSYLLINQACKEACEGIQSAHSVHKM", "soluble on expression in E. coli": "not soluble"}
{"sequence": "MTKSETTLSKLLVESELVQECEELLSSLPRDRSVFAEYLYQYQGFWYPPNLLEGVLYSQKHFQARDSDIVLASIPKSGTTWLKSLVFALIHRQEFQTPLVSHPLLDNNPHTLVTFIEGFHLHTQDTSPRIFSTHIPVGSLPESVKDSSCKVVYCCRNPKDAFVSLWHFMKNLIVKEMVGCTMEEMVRFFCRGSSIYGPFWDHVLQYWKESRENPKKVMFVMYEEMREQPQEWVMRIAEFLGYSFTEEEIENGVLEDIIKLCSLENLSKLEVNEKGKLLNGMETKAFFRKGEIGGWRDTLTPLLAEEIDKTTKEKLIGSDFRFFC", "soluble on expression in E. coli": "soluble"}
{"sequence": "MNISVFDLFSIGIGPSSSHTVGPMLAANAFLQLLEQKNLFDKTQRVKVELYGSLALTGKGHGTDKAILNGLENKAPETVDPASMIPRMHEILDSNLLNLAGKKEIPFHEATDFLFLQKELLPKHSNGMRFSAFDGNANLLIEQVYYSIGGGFITTEEDFDK", "soluble on expression in E. coli": "not soluble"}
{"sequence": "MSSTLREASKDTLQAKDKTYHYYSLPLAAKSLGDIARLPKSLKVLLENLLRWQDGESVTDEDIQALAGWLKNAHADREIAWRPARVLMQDFTGVPAVVDLAAMREAVKRLGGDTSKVNPLSPVDLVIDHSVTVDHFGDDDAFEENVRLEMERNHERYMFLKWGKQAFSRFSVVPPGTGICHQVNLEYLGKAVWSELQDGEWIAYPDSLVGTDSHTTMINGLGVLGWGVGGIEAEAAMLGQPVSMLIPDVVGFKLTGKLREGITATDLVLTVTQMLRKHGVVGKFVEFYGDGLDSLPLADRATIANMSPEYGATCGFFPIDAITLEYMRLSGRSDDLVELVETYAKAQGMWRNPGDEPVFTSTLELDMGDVEASLAGPKRPQDRVALGDVPKAFAASAELELNTAQRDRQPVDYTMNGQPYQLPDGAVVIAAITSCTNTSNPSVLMAAGLLAKKAVTLGLKRQPWVKASLAPGSKVVSDYLAQAKLTPYLDELGFNLVGYGCTTCIGNSGPLPEPIETAIKKGDLTVGAVLSGNRNFEGRIHPLVKTNWLASPPLVVAYALAGNMNINLATDPLGYDRKGDPVYLKDIWPSAQEIARAVELVSSDMFRKEYAEVFEGTEEWKSIQVESSDTYGWQSDSTYIRLSPFFDEMQAQPAPVKDIHGARILAMLGDSVTTDHISPAGSIKPDSPAGRYLQNHGVERKDFNSYGSRRGNHEVMMRGTFANIRIRNEMLPGVEGGMTRHLPGTEAMSIYDAAMLYQQEKTPLAVIAGKEYGSGSSRDWAAKGPRLLGIRVVIAESFERIHRSNLIGMGILPLEFPQGVTRKTLGLTGEEVIDIADLQNLRPGATIPVTLTRSDGSKETVPCRCRIDTATELTYYQNDGILHYVIRNMLN", "soluble on expression in E. coli": "not soluble"}
{"sequence": "MLAFKVVISDKEKSVQMEVDPSESRGLIGLTIGDEFDGSIIGLSGYKLKITGGSDKNGFPMKKTVPGARRIRSLVSGGVGYKPRRDGERRRKTFRGNTISDDIVQINTVVIEKLEHHHHHH", "soluble on expression in E. coli": "not soluble"}
{"sequence": "MRLTKLAATIGCVTLSGLALVACSSDSTAGTDAVAVGGTFQFHSPDGKMEIFYDEADRQQLPDIGGDSLMEEGTQINLSDFENQVVILNAWGQWCAPCRSESDDLQIIHEELQAAGNGDTPGGTVLGINVRDYSRDIAQDFVTDNGLDYPSIYDPPFMTAASLGGVPASVIPTTIVLDKQHRPAAVFLREVTSKDVLDVALPLVDEA", "soluble on expression in E. coli": "not soluble"}
{"sequence": "MGSDKIHHHHHHMTSNGQQGKPNLPEKDNLPRELGTQRINSPIARMGMFGAKTTGDTSGYGRLRVYRHVPAAAQRPYSDPSDPRTAYFDEVADALERSLKEIGTPYDTAISRVVVDRGEITFHVQREHLLDVATRLRDDPALRFELCLGVTGVHYPEDEGNELHAVYALRSITHNYEIRLEVSCPDSDPHIPSIVSVYPTNDWHEREAWDFFGIIFDGHPALTRIHMPDDWHGHPQRKDYPLGGIPVEYRGAKVPPPDQRRSYA", "soluble on expression in E. coli": "not soluble"}
